In the test the target is T1, SARS-CoV-2 spike protein RBD-Fc fusion protein, wild type (SARS-CoV-2, UniProt P0DTC2).
T1 construct: source: bought: Sino Biological
The experiment in a line: ELISA. The conditions noted are these: both partners purified. On the technique in general: ELISA stands for enzyme-linked immunosorbent assay.

B1: LW25.6, individual helix 2 of LCB1 (peptide)
chain: GHAEASMRVSDLIYEFMKKG
HELM: PEPTIDE1{[O=C1N[C@H]2[C@H](CS[C@H]2CCCCC(=O)[*:2])N1].[O=C(COCCOCCN[*:1])[*:2]].G.H.A.E.A.S.M.R.V.S.D.L.I.Y.E.F.M.K.K.G.[am]}$$$$V2.0
SMILES: CC[C@H](C)[C@H](NC(=O)[C@H](CC(C)C)NC(=O)[C@H](CC(=O)O)NC(=O)[C@H](CO)NC(=O)[C@@H](NC(=O)[C@H](CCCNC(=N)N)NC(=O)[C@H](CCSC)NC(=O)[C@H](CO)NC(=O)[C@H](C)NC(=O)[C@H](CCC(=O)O)NC(=O)[C@H](C)NC(=O)[C@H](Cc1c[nH]cn1)NC(=O)CNC(=O)COCCOCCNC(=O)CCCC[C@@H]1SC[C@@H]2NC(=O)N[C@@H]21)C(C)C)C(=O)N[C@@H](Cc1ccc(O)cc1)C(=O)N[C@@H](CCC(=O)O)C(=O)N[C@@H](Cc1ccccc1)C(=O)N[C@@H](CCSC)C(=O)N[C@@H](CCCCN)C(=O)N[C@@H](CCCCN)C(=O)NCC(N)=O
notes: source: synthetic peptide (Fmoc/tBu solid-phase synthesis, preparative HPLC)
What is called IC50 is the concentration that inhibits the measured activity by half. Low values mean greater potency in that assay, high ones weaker potency in that assay. With B1, the IC50 is over 200 nM.

B2: LW25.5, individual helix 1 of LCB1 (peptide)
chain: DKEWILQKIYEIMRLLDEL
HELM: PEPTIDE1{[O=C1N[C@H]2[C@H](CS[C@H]2CCCCC(=O)[*:2])N1].[O=C(COCCOCCN[*:1])[*:2]].D.K.E.W.I.L.Q.K.I.Y.E.I.M.R.L.L.D.E.L.[am]}$$$$V2.0
SMILES: CC[C@H](C)[C@H](NC(=O)[C@H](Cc1c[nH]c2ccccc12)NC(=O)[C@H](CCC(=O)O)NC(=O)[C@H](CCCCN)NC(=O)[C@H](CC(=O)O)NC(=O)COCCOCCNC(=O)CCCC[C@@H]1SC[C@@H]2NC(=O)N[C@@H]21)C(=O)N[C@@H](CC(C)C)C(=O)N[C@@H](CCC(N)=O)C(=O)N[C@@H](CCCCN)C(=O)N[C@H](C(=O)N[C@@H](Cc1ccc(O)cc1)C(=O)N[C@@H](CCC(=O)O)C(=O)N[C@H](C(=O)N[C@@H](CCSC)C(=O)N[C@@H](CCCNC(=N)N)C(=O)N[C@@H](CC(C)C)C(=O)N[C@@H](CC(C)C)C(=O)N[C@@H](CC(=O)O)C(=O)N[C@@H](CCC(=O)O)C(=O)N[C@@H](CC(C)C)C(N)=O)[C@@H](C)CC)[C@@H](C)CC
notes: as for B1
Take B2: the half-inhibitory concentration (IC50) was over 200 nM.

For the origin of these results see PMC9181698 (International Journal of Molecular Sciences, 2022).
